Results: publication PMC10786891, “Massively parallel profiling of RNA-targeting CRISPR-Cas13d”
Substitutions are numbered along the chain they refer to. Numbers in names are those of the source.

T1: EsCas13d, nuclease-dead (Eubacterium siraeum, UniProt B0MS50, R295A;H300A;R849A;H854A)
T1 sequence: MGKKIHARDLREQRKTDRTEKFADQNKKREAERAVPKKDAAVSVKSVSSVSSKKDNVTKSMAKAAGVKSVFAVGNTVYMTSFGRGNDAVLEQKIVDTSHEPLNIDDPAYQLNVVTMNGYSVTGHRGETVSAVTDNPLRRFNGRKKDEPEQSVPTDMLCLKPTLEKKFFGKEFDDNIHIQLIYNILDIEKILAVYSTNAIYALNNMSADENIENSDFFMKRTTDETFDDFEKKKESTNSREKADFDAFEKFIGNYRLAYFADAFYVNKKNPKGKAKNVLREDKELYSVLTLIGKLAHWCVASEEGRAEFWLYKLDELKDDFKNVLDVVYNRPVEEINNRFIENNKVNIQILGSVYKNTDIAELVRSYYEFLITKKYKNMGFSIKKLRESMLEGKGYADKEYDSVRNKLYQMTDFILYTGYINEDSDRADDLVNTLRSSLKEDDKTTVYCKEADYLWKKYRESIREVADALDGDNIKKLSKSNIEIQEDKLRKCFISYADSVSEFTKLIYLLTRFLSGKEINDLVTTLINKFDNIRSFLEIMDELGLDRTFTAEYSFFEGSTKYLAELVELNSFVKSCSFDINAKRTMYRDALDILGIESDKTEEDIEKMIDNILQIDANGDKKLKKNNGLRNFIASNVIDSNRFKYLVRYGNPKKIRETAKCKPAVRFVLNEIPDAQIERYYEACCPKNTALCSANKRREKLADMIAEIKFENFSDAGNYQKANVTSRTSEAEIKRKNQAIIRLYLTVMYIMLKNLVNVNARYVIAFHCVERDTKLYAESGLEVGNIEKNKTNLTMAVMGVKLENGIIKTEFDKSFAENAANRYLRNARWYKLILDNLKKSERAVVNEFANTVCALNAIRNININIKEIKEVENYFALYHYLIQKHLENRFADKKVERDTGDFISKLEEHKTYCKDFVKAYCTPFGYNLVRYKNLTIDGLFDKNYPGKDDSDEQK

B1: target 2 MT 5'PFS UUA 3'PFS UUG (mixed)
RNA 1: CACCCGUGCAAAAUUGCAGGGGUCUAAAACCUUCUCCAAAUUGUUUCAUCCU
RNA 2: GGGAAUGGAUCCACAUCUACGAAUUCUUAAGGAUGAAACAAUUUGGAGAAGUUGAGAUCGGAAGAGCACACGU
B2: target 2 MT 5'PFS CAU 3'PFS UUA (mixed)
RNA 1: B1 RNA 1
RNA 2: B1 RNA 2 with U27C, U28A, A29U, G54A
B3: target 2 MT 5'PFS ACA 3'PFS CGG (mixed)
RNA 1: B1 RNA 1
RNA 2: B1 RNA 2 with U27A, U28C, U52C, U53G
B4: target 2 MT 5'PFS UGG 3'PFS AGU (mixed)
RNA 1: B1 RNA 1
RNA 2: B1 RNA 2 with U28G, A29G, U52A, U53G, G54U
B5: target 2 MT 5'PFS ACC 3'PFS CAC (mixed)
RNA 1: B1 RNA 1
RNA 2: B1 RNA 2 with U27A, U28C, A29C, U52C, U53A, G54C
B6: target 2 MT 5'PFS UGU 3'PFS AUA (mixed)
RNA 1: B1 RNA 1
RNA 2: B1 RNA 2 with U28G, A29U, U52A, G54A
B7: target 2 MT 5'PFS ACA 3'PFS UCA (mixed)
RNA 1: B1 RNA 1
RNA 2: B1 RNA 2 with U27A, U28C, U53C, G54A
B8: target 2 MT 5'PFS CAU 3'PFS UUC (mixed)
RNA 1: B1 RNA 1
RNA 2: B1 RNA 2 with U27C, U28A, A29U, G54C
B9: target 2 MT 5'PFS AGA 3'PFS UCG (mixed)
RNA 1: B1 RNA 1
RNA 2: B1 RNA 2 with U27A, U28G, U53C
B10: target 2 MT 5'PFS UUA 3'PFS UUA (mixed)
RNA 1: B1 RNA 1
RNA 2: B1 RNA 2 with G54A
B11: target 2 MT 5'PFS CGC 3'PFS CUC (mixed)
RNA 1: B1 RNA 1
RNA 2: B1 RNA 2 with U27C, U28G, A29C, U52C, G54C
B12: target 2 MT 5'PFS CAU 3'PFS UUU (mixed)
RNA 1: B1 RNA 1
RNA 2: B1 RNA 2 with U27C, U28A, A29U, G54U
B13: target 2 MT 5'PFS UCA 3'PFS CAU (mixed)
RNA 1: B1 RNA 1
RNA 2: B1 RNA 2 with U28C, U52C, U53A, G54U
B14: target 2 MT 5'PFS GUC 3'PFS UAC (mixed)
RNA 1: B1 RNA 1
RNA 2: B1 RNA 2 with U27G, A29C, U53A, G54C
B15: target 2 MT 5'PFS UGG 3'PFS AAC (mixed)
RNA 1: B1 RNA 1
RNA 2: B1 RNA 2 with U28G, A29G, U52A, U53A, G54C
B16: target 2 MT 5'PFS ACA 3'PFS AGC (mixed)
RNA 1: B1 RNA 1
RNA 2: B1 RNA 2 with U27A, U28C, U52A, U53G, G54C
B17: target 2 MT 5'PFS UGU 3'PFS AUC (mixed)
RNA 1: B1 RNA 1
RNA 2: B1 RNA 2 with U28G, A29U, U52A, G54C
B18: target 2 MT 5'PFS CGC 3'PFS CUG (mixed)
RNA 1: B1 RNA 1
RNA 2: B1 RNA 2 with U27C, U28G, A29C, U52C
B19: target 2 MT 5'PFS GUC 3'PFS UAU (mixed)
RNA 1: B1 RNA 1
RNA 2: B1 RNA 2 with U27G, A29C, U53A, G54U
B20: target 2 MT 5'PFS UGG 3'PFS AGC (mixed)
RNA 1: B1 RNA 1
RNA 2: B1 RNA 2 with U28G, A29G, U52A, U53G, G54C
B21: target 2 MT 5'PFS GCU 3'PFS UAU (mixed)
RNA 1: B1 RNA 1
RNA 2: B1 RNA 2 with U27G, U28C, A29U, U53A, G54U
B22: target 2 MT 5'PFS AGA 3'PFS UCC (mixed)
RNA 1: B1 RNA 1
RNA 2: B1 RNA 2 with U27A, U28G, U53C, G54C
B23: target 2 MT 5'PFS AGA 3'PFS UCA (mixed)
RNA 1: B1 RNA 1
RNA 2: B1 RNA 2 with U27A, U28G, U53C, G54A
B24: target 2 MT 5'PFS GCU 3'PFS UUC (mixed)
RNA 1: B1 RNA 1
RNA 2: B1 RNA 2 with U27G, U28C, A29U, G54C
B25: target 2 MT 5'PFS CAU 3'PFS UUG (mixed)
RNA 1: B1 RNA 1
RNA 2: B1 RNA 2 with U27C, U28A, A29U
B26: target 2 MT 5'PFS GUC 3'PFS UAG (mixed)
RNA 1: B1 RNA 1
RNA 2: B1 RNA 2 with U27G, A29C, U53A
B27: target 2 MT 5'PFS ACA 3'PFS AGA (mixed)
RNA 1: B1 RNA 1
RNA 2: B1 RNA 2 with U27A, U28C, U52A, U53G, G54A
B28: target 2 MT 5'PFS UAU 3'PFS GAG (mixed)
RNA 1: B1 RNA 1
RNA 2: B1 RNA 2 with U28A, A29U, U52G, U53A
B29: target 2 MT 5'PFS UUA 3'PFS UUU (mixed)
RNA 1: B1 RNA 1
RNA 2: B1 RNA 2 with G54U
B30: target 2 MT 5'PFS CGC 3'PFS CUA (mixed)
RNA 1: B1 RNA 1
RNA 2: B1 RNA 2 with U27C, U28G, A29C, U52C, G54A
B31: target 2 MT 5'PFS UGG 3'PFS CAC (mixed)
RNA 1: B1 RNA 1
RNA 2: B1 RNA 2 with U28G, A29G, U52C, U53A, G54C
B32: target 2 MT 5'PFS GUC 3'PFS UAA (mixed)
RNA 1: B1 RNA 1
RNA 2: B1 RNA 2 with U27G, A29C, U53A, G54A
B33: target 2 MT 5'PFS ACA 3'PFS AGG (mixed)
RNA 1: B1 RNA 1
RNA 2: B1 RNA 2 with U27A, U28C, U52A, U53G
B34: target 2 MT 5'PFS ACA 3'PFS CGC (mixed)
RNA 1: B1 RNA 1
RNA 2: B1 RNA 2 with U27A, U28C, U52C, U53G, G54C
B35: target 1 G5C,C21U (mixed)
RNA 1: CACCCGUGCAAAAAUGCAGGGGUCUAAAACUGAGCGGAUAACCUCUCUAUGG
RNA 2: GGGAAUGGAUCCACAUCUACGAAUUCGUACUAUAGAGAGGUUAUCCCCUCACCGAGAUCGGAAGAGCACACGU
B36: target 1 insC 3' of 20,insU 3' of 1 (mixed)
RNA 1: B35 RNA 1
RNA 2: GGGAAUGGAUCCACAUCUACGAAUUCGUACCACUAGAGAGGUUAUCCGCUCAUCCGAGAUCGGAAGAGCACACGU
B37: target 1 A9G,G15U (mixed)
RNA 1: B35 RNA 1
RNA 2: B35 RNA 2 with U31C, G37U, A43G, C47G
B38: target 1 A9G,C22A (mixed)
RNA 1: B35 RNA 1
RNA 2: B35 RNA 2 with C30A, U31C, A43G, C47G

Target: T1, EsCas13d, nuclease-dead
Assay: crRNA (strand 1, pre-loaded); Mg2+; 40 mM Tris-HCl pH 7.5, 150 mM NaCl, 6 mM MgCl2, 1 mM DTT, 0.1% Tween-20, 0.2 mg/ml BSA; 25 C; 10 min per concentration, then washed
Conditions: tags: His6-TwinStrep-SUMO cleaved; N-terminal SNAP kept (SNAP-Surface 488); label: 3' end held by stalled T7 RNA polymerase

Binder | Kd [nM]
B1 | 19.3 ± 2.8
B2 | 5.2 ± 0.9
B3 | 5.2 ± 0.9
B4 | 8 ± 0.8
B5 | 7.4 ± 1.6
B6 | 9.9 ± 1.6
B7 | 8.7 ± 3.2
B8 | 9.1 ± 1.6
B9 | 14 ± 4
B10 | 49 ± 21
B11 | 9.6 ± 1.7
B12 | 6.2 ± 0.7
B13 | 4.8 ± 1.1
B14 | 15.3 ± 2.4
B15 | 7.1 ± 0.6
B16 | 4.7 ± 1.1
B17 | 16.6 ± 2.6
B18 | 8 ± 1.9
B19 | 18 ± 5

Binder | Kd [nM]
B20 | 6 ± 0.9
B21 | 11 ± 4
B22 | 43 ± 15
B23 | 8.2 ± 1.8
B24 | ~90
B25 | 4.5 ± 0.4
B26 | 14 ± 2
B27 | 3.6 ± 1.3
B28 | ~50
B29 | ~70
B30 | 7.4 ± 1.8
B31 | 15.3 ± 2.5
B32 | 9.3 ± 1.4
B33 | 4.9 ± 0.6
B34 | 4.9 ± 0.7
B35 | 7.1 ± 0.4
B36 | 7.34 ± 0.35
B37 | 17.3 ± 1.4
B38 | 21.9 ± 1.3
